Experimental data: the DeepSol protein solubility set

Test: soluble on expression in E. coli; label from the status in PepcDB or PDB records

Sequence | soluble on expression in E. coli
MSLNGKNLTLNVPVTAAVPGARGIKADCITDGACTESSTYFQKSSNAATGSPYMFTIDMQKEAVISEINLSTRLVNGSEAAYKYTIEGSRDGKSYKMLVDGKLNWQVGFLILNIEDPSLYRYLRLRVYGVVNVHKNNSAMWADGIYEFAAYGKEGHHHHHH | not soluble
MGSDKIHHHHHHMPQLRDSGNHSTAPLDAHTKDEIQSFARIFGIETEYGVSVTGSDRPCDAGQTAMMMFQPIVAEARSTNTYIENGSRLYLDVGSHPEYATAEARDPMDALALDAAGELVMRDLALDAQRRLRSIQGAGSTVHVFKNNVDSAGHSFGCHENYLVRRFVPLKTIEQELLPFLITRQLFTGAGRMGEQGFQITQRADFLDEAVSSATTRSRPMVNTRDEPHADPDAFRRLHVIIGDSNRSQWATMMKLATTHLVLCVIEQAGREGKDSGFARFSFADASAANHKVSRDLTGVEASFDMADGTVMEGGAVAIQERYLEIVERFVGQHPEVCSSLPRTDVHEVIRRWRRVIEAFRSGVSETFADKVDWLAKRRLFDMLRNRAGGRLSVSKLEQLDMDYHDVANGALYASLCRRGAMRTLVNESQAHEAIDVPPHDTRAALRGRFIQSARSHNAQYSCDWTRLSLTSPNRMDVTLLDPFDAQPSDRFLTILEALQ | not soluble
GDLSNYFSNLSRLNCPQTIMTFRLFDPGFPFTDIEVNADIVLDRDAEKLPENWLQQLTGLSDTDVSMTAKGNVLSGQFLLPDFNLKLQDKSHAYLLLQGMDLEEVLRIQPQIGIYANGLFDGVLPVDLVDGKVSISGGQLAARAPGGLIAISGNPAVDQMRQSQPYLDFVFSALEHLAYSQLSSSFDMDNTGDATLLVEVKGRSQGIERPIHLNYSHEENMLQLFRSLQIGNDLQNRIEK | not soluble
MSLAEKLPFRVKKHQSKLLKKLGETDMQLQYNKVDNLKIVVSKINGMIIHPGETFSFCKTVGLPTRKKGYKEGMELSFGKPRAGVGGGICQSTNLLHWLALHSPLTITERHHHSIDPFPDNGRVLPWASGAAVFYNYIDFQLTNDTSWAFQINLWLTDKLLEGEIRVNEELDFAYHVKERNHRFIKKEGAYFRTNEIWRHKIAKFRSGALLEEELMYKNYGKVMYVPKTYQEGHHHHHH | soluble
MGSDKIHHHHHHFGKQSKPTPNFAKKSDAYSADDDRVPNLVDDDEEEIIGDEEDDVNQPGPSGSQSNPEPQDEEENAEQQSANSSQSSAAEEEDDEHVVPENEPVKPTEEFAKKSPKNTGGAKRRTARRGD | not soluble
SLEGWGRGLAMFYIRRVETPEGLVMVLVTDEDVMERAVYDEERGVRIIVSRSFYGGSLGTEADAIKTIEKADIIVLTGEKSVSIGVRMGLVNPDSVLEVKGIKQVQVFKFSY | soluble
MPSKQVGWWTMSEHTNDEVQPTALSGNDAVNRAAEQWKESAHRNIPGLGDLPIPDDTANLREGPNLHDGLLALLPLVGVWRGTGHADTAEEGQYAFGQQITFAHDGENYLTYESRIWKLDDEGNSTDLDYRESGFWRISLKDEIEVVLTHSTGVAEIFYGEPMNERAWQIESASTMVTAQGPATLGPGKRLYGLMPNNNLGWVDERMVDGEMRPRMSAELSRVIGLEHHHHHH | soluble
MGSDKIHHHHHHVAELVFFSGTMDCGKSTLALQMDHNHRARGRGGVRFSRNDRAGGARISSRLGLETDCVEVLDTTDFWDEVIERRTRGLRVDYLICDEAQFYSPLQVEQLARIVDEIDVDVFAFGISADFRTRLFPGSQRLIELADRVQVLQVEALCWCGRRATHNARTVDGVMVTEGAQVVVGDVDMAGDPASASADHAPVVGYETLCRRHFMRRVTAHGANVMAQQDQLLPFEVDACLWHGSGETRHS | not soluble
MSLKKIQFFDTTLRDGEQTPGVNFDVKEKIQIALQLEKLGIDVIEAGFPISSPGDFECVKAIAKAIKHCSVTGLARCVEGDIDRAEEALKDAVSPQIHIFLATSDVHMEYKLKMSRAEVLASIKHHISYARQKFDVVQFSPEDATRSDRAFLIEAVQTAIDAGATVINIPDTVGYTNPTEFGQLFQDLRREIKQFDDIIFASHCHDDLGMATANALAAIENGARRVEGTINGIGERAGNTALEEVAVALHIRKDFYQAETNIVLNQFKNSSDLISRLSGMPVPRNKAVIGGNAYAHESGIHQDGVLKNPDTYEIITPALVGVDKNSLPLGKLSGKHAFNTRMEEMGYTLTEQEQKDAFKRFKQLADAKKEVTEEDLHALILGQSSESADDFELKHLQVQYVTGGVQGAIVRIEERDGALVEDAATGSGSIEAIYNTINRLMKQDIELTDYRIQAITAGQDAQAEVHVVIKNDKGAVFHGIGIDFDVLTASAKAYLQASGKSKTASKQADFEEVKEGHHHHHH | not soluble
MNLQAREGAPLNRYYDPYFACDAVKLLPGEYFASGEDLVIVTVLGSCVSVCLRDPLNGIAGMNHFMLPERGLGGDPASPSARYGSHAMELLINRMLALGASRERLQAKVFGGGSVLRQISAAIGQRNVEFTLDYLATERIPLLASDVLEAFPRKIYFFPRNGRVLVKSLVELKNDTVLQRERDYRRRIDRNADGGPIDLF | not soluble
MSRQAKDDFLRHYTVSDPRTHPKGYTEYKVTAQFISKKDPEDVKEVVVWKRYSDFRKLHGDLAYTHRNLFRRLEEFPAFPRAQVFGRFEASVIEERRKGAEDLLRFTVHIPALNNSPQLKEFFRGGEVTRPLEVSRDLHILPPPLIPTPPPDDPRLSQLLPAERRGLEELEVPVDPPPSSPAQEALDLLFNCESTEEASGSPARGPLTEAELALFDPFSKEEGAAPSPTHVAELATMEVESARLDQEPWEPGGQEEEEDGEGGPTPAYLSQATELITQALRDEKAGAYAAALQGYRDGVHVLLQGVPSDPLPARQEGVKKKAAEYLKRAEEILRLHLSQLPP | soluble
MGSDKIHHHHHHAAPGDLQEKLAALKGISGIEKLQSDYYPEKYVVRITQQVDPKDPAAGTFTQRVIVGHVGYDRPTIIVTEGYGAAYALNPKYQEELSKLLNANLVFVEYRYFLESTPEPKNWDYLTAENSAYDLHNVRNTFKQIYPGKWISTGISKGGQTTMLYRAFFPDDVDFSVPYVGPLCKGVEDGRHEPFLRKVGTKAEREKIQDFQLEVLKRKSDMLPLLESYCKNKNLTFRIPMPEVLDYCVLEYSFALWQWGTSVSTIPSKSADDQALFDHLMEISGPDYFAENQPNISFFVQAARELGYYGYDVKPFKKYLTIDSAHGYLNRIMLPEELVGKVDFRPALYHKIYNFLKDNDPKMIFIYGEIDPWSAAMVPAFKGKKNEQIYIQPRGSHRARIGNMPEDMKERILTQMNKWLAE | not soluble
MAIRKLLLLLKPIDPYPFLQTEGASLIKNPQVLINYLPQMRLISILNPDHVLQYLESRCKVHKNAIKFCQEILSKKPVEWKPISRNDLSHPIRDVDMVITVGGDGTLLHASHFIDDSVPVLGVNSDPTQAHEVEELSDQFDASRSTGHLCAATVENFEQVLDDILFGRVVPAKVSRISLKLNSETLLSHALNDILIAQPCPAAVSRFSFKIKNKDGASSPKTVNCRSSGLRICTAAGSTAAMQSAGGFVMPMLSRDLQFMVREPISPGSTASLMHSTFKPDQFMDVNWYSDHGTIYIDGCQVQHSVQLGDTIEISSDAPVLNVFLSHGISQIRSRY | soluble
MGSDKIHHHHHHMPKRFEWLFYAFIAFALYSCNGSSRGKGTEVETVSIDTADFNFPVRFEYAKGIQTVNHTGYKTVYIFHPDKPDTMAVYILYPRDSKRPVARHPKALYIPVPARTIACLSTTQIGSLPLLDQTDKLVGCINLKNICNADIRNRIKKGYVQEIGTGMTKNIEQIAGLRPEILLQDLFHVSDKDEELIASGINTVLYNEWKERDLLGRAEWMKLTAMLLSCNRRAHEVFEQIESEYAEARKLVAEKTDTIAIMYGQDYNGTWYLPGEYSYSTAMFRDARVSFDYAAGKVSSQPCSFEYIFSRHRHAEIWICTMMGNIKTMDEFLALNERYRHFDATQTGKVYIDRKRVNENGGNDYWESGLYRPDLLLKDIIKITRPELLPEYETSYWIELKRP | not soluble
MPTLRFRQKVVHKLNNSGIIARPKTVIHPIKMKTTLIAAAEVDRLETWQRYTSNMCHGCHSTCCTLPVEVKIKDLIRIGVVDEFEKDEPPKNVAKRLQKEGIIERFNQKSGIFTLTRMSNDDCMYLDRKSRLCTIYDKRPDTCRNHPKVGPRPGYCAYKPKVVGRLEHHHHHH | not soluble
MAHHHHHHMRLTASRALLQQAGEMCTALHWMCRIAARVPESGLSGSQLQALLDDEFPSFSPSEVGAVTLKEAVLRFPELLSVEDGSQLQAKWRVRPTHAHKTQEQRASPSSKPTETYTLPMMKLQQFCTKRARMHRNTYMPLEYVLSKADITDVNIVGEVLHNPDAALDVQAGVRIKPKRTPRAVVAFVDGDALPAVAVDEMCNELNVLKESSIVTIVRQPGSHELSAVDIVCPDVIPTYLSIEKHAHELRLRRPNVRHDVVYMCAASQFNIYADRVALLNDFPDADVYVCCPSMIALVKPKKVIPFE | soluble
MPRVGIITSDFKFYHDVIKQLRLWKIPFVSLDLKGNIPDDVVVILSSIRDDIDLPDQVKAQDGLDGIRRAIPRLLNKTMFKDLTIGIDPGPKPGIAVFGDDVLLEAFECPTVFSVRKFVDSISMSYSYENITIKIGNGDRPNRDIIMNRLSDVDISIEVVNEKNTSTPHKIHDNALSAARIAQINGLYPIKRIPVKFSRKNVYEKEFVTLKNVIENAAGTEGRSSNST | not soluble
VTGVASAMAERLKEDGNNCFKKERFGAAIDAYTEAIALSPNVPAYWTNRALCHMKRKDWTKVEEDCRKAIQLVHNSVKAHYMLGLALLQKKEFTNGVKELQRALDLGRC | not soluble
MSLTQIFAHRGSKVDCPENTLAAFKKAIQVGCDGIEIDVHRTKDNQLVVIHDEAVDRTSNGSGLVRQLTLKQIRMLDAGSWFHPAYFCEKIPTLEEVLNFLEESGFQGTLNLEIKTNRYPYPKIEKQIAQTMQAKKRSFSHIYSSFNLFSLYVMRKHDPKAELAYLMKFHPFHFWLAQQLKFIKTVHSHSSFYENQVTKRKNKKPFRLWTVNNDDDMKKFFLSGIEGIITDKPEEAVKLRKSLQTKEGHHHHHH | not soluble
MDGIFAGIICNQANRCLTWTSQQLFSEKISGAEGTKLDDEFLDMERKIDVTNKVVAEILSKTTEYLQPNPAYRAKLGMLNTVSKIRGQVKTTGYPQTEGLLGDCMLKYGKELGEDSTFGNALIEVGESMKLMAEVKDSLDINVKQTFIDPLQLLQDKDLKEIGHHLKKLEGRRLDYDYKKKRVGKIPDEEVRQAVEKFEESKELAERSMFNFLENDVEQVSQLAVFIEAALDYHRQSTEILQELQSKLQMRISAASSVPRREYKPRPVKRSSSELNGVSTTSVVKTTGSNIPMDQPCCRGLYDFEPENQGELGFKEGDIITLTNQIDENWYEGMIHGESGFFPINYVEVIVPLPQ | soluble
MLVQGAGGNTSIKQAGVLWIKASGTWLKNARDDEIMVPVALAPLLDAVSHRSPAAEAAGQFTLADLNPRQLRPSIETTVHALLPQKIVVHVHCVETISIAVQANAEALLEGRLRGLDWAFVPYRRPGLPLAQAIAERLKPATNVLVLGNHGLVVAADTVAEAALLLQRVTGLLARQPRPAPPPDLDALLRLAAGSDYRLPALEHHHHHH | soluble
MTRLLYYEDAYLKEAKAKVLEVKDNALLLDQTIFYPTGGGQPHDRGWINGVEVLDVYKDEEGNVWHVVKELEKFKPGDEVELKLDWEYRYKLMRIHSALHLLENVLDQILGKGNWEVVGSGMTHEKGRLDVGYPENLNAYKEKIIELFNRYVDEGGEIKIWWEGEKRYTQIRDFDPIPCGGTHVKDIREIGHIKKLKRSSIGRGKQRLEIWLEDLEHHHHHH | not soluble
MNTKKEIKFIEEIKGLVPKKLGKIYTSSIIEKDSKRLTINLKKVDALPKCGLIGAPDVCVKITLTQGAKTQTKSSRVIKNTCSAVYNEAVMFLCGTSKNDLAQTSIVISVHDAQRTCTGDDTIGCAYLGIGAVDKSEIDQWKGTTEHLGKEYKGNHTLKAPITAPPVHVAEANDDVAADDDD | soluble
